From patent US20040123349A1 (published 2004)

T1: MBP-SINAT5
T1 sequence: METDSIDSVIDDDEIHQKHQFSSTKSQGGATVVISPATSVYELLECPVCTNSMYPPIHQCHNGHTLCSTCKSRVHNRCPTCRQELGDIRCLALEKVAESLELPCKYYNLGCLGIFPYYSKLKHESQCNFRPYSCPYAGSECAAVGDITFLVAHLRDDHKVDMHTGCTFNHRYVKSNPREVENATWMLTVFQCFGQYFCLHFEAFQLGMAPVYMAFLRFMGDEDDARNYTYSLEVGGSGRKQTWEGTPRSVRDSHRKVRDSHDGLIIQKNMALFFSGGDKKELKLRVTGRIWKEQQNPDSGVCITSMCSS

T2: Myc-NAC1, Q84TE6
T2 chain: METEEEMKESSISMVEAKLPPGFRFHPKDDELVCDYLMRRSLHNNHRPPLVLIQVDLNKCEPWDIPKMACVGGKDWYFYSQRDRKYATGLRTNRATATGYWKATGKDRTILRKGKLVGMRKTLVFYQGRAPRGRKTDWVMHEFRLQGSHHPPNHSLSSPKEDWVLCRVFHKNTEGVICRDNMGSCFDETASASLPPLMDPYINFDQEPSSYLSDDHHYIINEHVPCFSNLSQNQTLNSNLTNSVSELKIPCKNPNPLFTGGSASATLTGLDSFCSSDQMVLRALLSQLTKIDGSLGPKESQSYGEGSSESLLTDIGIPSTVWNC

T3: Myc-NAC1 (Arabidopsis, UniProt Q84TE6 1-324)
T3 construct: Product of the 35S-6xMyc-NAC1 transgene in Arabidopsis thaliana; immunoprecipitated with anti-Myc antibody; also called 6xMyc-NAC1; Myc-tagged NAC1; not shown: 6xMyc tag
T3 sequence (looked up): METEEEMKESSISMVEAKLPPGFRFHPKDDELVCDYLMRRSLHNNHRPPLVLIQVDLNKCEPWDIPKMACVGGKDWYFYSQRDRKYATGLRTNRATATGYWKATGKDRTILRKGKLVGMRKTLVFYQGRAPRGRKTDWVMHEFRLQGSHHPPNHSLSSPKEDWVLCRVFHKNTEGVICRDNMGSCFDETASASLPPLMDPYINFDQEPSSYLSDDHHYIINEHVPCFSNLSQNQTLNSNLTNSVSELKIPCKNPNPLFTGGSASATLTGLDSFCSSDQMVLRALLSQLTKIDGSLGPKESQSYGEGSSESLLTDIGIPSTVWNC


Key:
MBP-SINAT5 = tested on: T1, MBP-SINAT5
Myc-NAC1, Q84TE6 = biological target: T2, Myc-NAC1, Q84TE6
Myc-NAC1 = biological target: T3, Myc-NAC1; assay: immunoprecipitation with anti-Myc from roots of double transgenic plants, Western blot with anti-SINAT5
Description: Western and Northern blot analyses. Antibody to SINAT5 was raised in rabbits using as an antigen the synthetic […] peptide […] (SEQ ID NO:5) corresponding to amino acid residues 3 to 18 of SINAT5 polypeptide (SEQ ID NO:1). Antibodies to c-Myc (SC40 and SC40-AC) and actin (SC1616) from Santa Cruz Biotechnology were used for immunoprecipitation and/or Western blotting. Each lane contained 10 or 20 μg protein. RNA extraction was performed by RNeasyR Plant Mini kit (Qiagene). Northern blot analysis was described previously²⁰, using as probes a NAC1 cDNA fragment encoding the NAC1 C-terminal region (amino acid 200 to 324) and a SINAT5-specific EcoRI-NdeI fragment. The 18S rRNA was used as a loading control. Each lane contained 10 μg RNA.
SINAT5 affect on expression of NAC1 in roots. Referring now to FIG. 4, there is shown the relationship between SINAT5 and NAC1 expression levels in transgenic plants. […] Root cultures from a myc-NAC1 transgenic line were treated with 50 μM of proteasome inhibitor MG 132 (+) or DMSO (−) for 3 hr. Protein extracts were processed for Western blot analysis. […] Myc-tagged proteins from roots of double transgenic plants were immunoprecipitated with antibodies specific for Myc and processed for Western blot analysis with antibodies specific for SINAT5. […] Total RNAs from the same transgenic lines were analyzed by Northern blot. […]

Molecule | self-ubiquitylation activity (E3 activity) of WT SINAT5, in vitro ubiquitylation assay (MBP-SINAT5) | in vitro ubiquitylation of myc-NAC1 immunopurified from transgenic plants (Western blot) (Myc-NAC1, Q84TE6) | binding result (Myc-NAC1)
MBP-SINAT5 (C49S) mutant | the C49S mutant protein was able to inhibit the self-ubiquitylation activity of the WT SINAT5 when present at a 5-10 fold excess | – | –
SINAT5 (wildtype) (enzyme, GenBank AF480944 is printed for the gene; also called WT SINAT5; SINA of Arabidopsis thaliana 5) METDSIDSVIDDDEIHQKHQFSSTKSQGGATVVISPATSVYELLECPVCTNSMYPPIHQCHNGHTLCSTCKSRVHNRCPTCRQELGDIRCLALEKVAESLELPCKYYNLGCLGIFPYYSKLKHESQCNFRPYSCPYAGSECAAVGDITFLVAHLRDDHKVDMHTGCTFNHRYVKSNPREVENATWMLTVFQCFGQYFCLHFEAFQLGMAPVYMAFLRFMGDEDDARNYTYSLEVGGSGRKQTWEGTPRSVRDSHRKVRDSHDGLIIQKNMALFFSGGDKKELKLRVTGRIWKEQQNPDSGVCITSMCSS | – | myc-NAC1 can be ubiquitylated by SINAT5 and this reaction is clearly dependent on E1, E2, and SINAT5 as an E3 ligase | binds
